Experimental data reported in US20250136678A1 (BIOSION, published 2025).

Legend:
[1] = target: T1, human CLDN18.2 (NP_001002026.1) (human, UniProt P56856-2 1-261); assay: cell-based binding FACS on BAF3-CLDN18.2 cells, MFI against Con of mAb, nM is the unit of the x axis; the curve levels off near MFI 600
T1 construct: whole, on cells; KATO III cells also served as target cells in the ADCC assay; also called Claudin18.2; Claudin-18 splice variant 2
Procedure: (§1) The BAF3-CLDN18.2, BAF3-CLDN18.1 and BAF3 cells were harvested, washed twice and re-suspended in phosphate buffered saline (PBS) containing 2% v/v Fetal Bovine Serum (FACS buffer), BAF3 cells were used here as blank control. The cells, 1×10⁵ per well, were incubated in 96 well-plates with 100 μl serially diluted antibodies or controls (starting from 10 μg/mL, 5-fold serial dilution) in FACS buffer for 50 minutes on ice. […] Following an incubation of 50 minutes at 4° C. in dark, cells were washed three times and re-suspended in FACS buffer. Fluorescence was measured using a Becton Dickinson FACS Canto II-HTS equipment, and the MFI (mean fluorescence intensity) was plotted against antibody concentration. Data was analyzed using Graphpad Prism and EC₅₀ values were reported.

[2] = target: T1, human CLDN18.2 (NP_001002026.1); assay: cell-based binding FACS on BAF3-CLDN18.2 cells; y axis unlabelled, nM is the unit of the x axis; the curve reaches only about 800 at the last point
Procedure: as §1

[3] = target: T1, human CLDN18.2 (NP_001002026.1); assay: cell-based binding FACS on BAF3-CLDN18.2 cells, MFI against Con of mAb, nM is the unit of the x axis; low curve reaching only MFI about 300-400 at the last point
Procedure: as §1

[4] = target: T1, human CLDN18.2 (NP_001002026.1); assay: cell-based binding FACS on BAF3-CLDN18.2 cells, MFI against Con of mAb, nM is the unit of the x axis; low curve (open down-triangles) reaching only MFI about 400-500
Procedure: as §1

[5] = target: T1, human CLDN18.2 (NP_001002026.1); assay: cell-based blocking FACS on BAF3-CLDN18.2 cells; unlabeled Zolbetuximab against biotin labeled Zolbetuximab, SA-PE detection, nM is the unit of the x axis; signal falls only from about 870 to about 600 at the last point, no lower plateau is reached
Procedure: The anti-CLDN18.2 antibodies of the disclosure, and the controls were diluted with FACS buffer starting from 10 μg/mL with 5-fold serial dilution. BAF3-CLDN18.2 cells were harvested from cell culture flasks at the log phase, washed twice and re-suspended in PBS containing 2% v/v Fetal Bovine Serum (FACS buffer). […] Then the cells were washed twice with FACS buffer, added with 100 μl/well SA-PE (1:200 dilution in FACS buffer, Cat #:016-110-084, Jackson Immunoresearch), and incubated for 40 minutes at 4° C. in dark. Cells were washed twice and re-suspended in FACS buffer. Fluorescence was measured using a Becton Dickinson FACS Canto II-HTS equipment. Data was analyzed using Graphpad Prism and IC₅₀ values were reported.

- EC50 [1]: 2.44 nM
- EC50 [2]: 11 nM
- EC50 [3]: 5.48 nM
- EC50 [4]: 4.67 nM
- IC50 [5]: 17.3 nM
B1: Zolbetuximab (antibody, human IgG1, kappa, V domains shown)
VH: QVQLQQPGAELVRPGASVKLSCKASGYTFTSYWINWVKQRPGQGLEWIGNIYPSDSYTNYNQKFKDKATLTVDKSSSTAYMQLSSPTSEDSAVYYCTRSWRGNSFDYWGQGTTLTVSS
VL: DIVMTQSPSSLTVTAGEKVTMSCKSSQSLLNSGNQKNYLTWYQQKPGQPPKLLIYWASTRESGVPDRFTGSGSGTDFTLTISSVQAEDLAVYYCQNDYSYPFTFGSGTKLEIKR
notes: also called IMAB362; Benchmark
